# In paper PMC11532494 (Nature Communications, 2024):
# Values joined by “and” are separate entries in the source; they are usually repeats but may differ in a detail not shown here. Equal values may be shown once. No end group written: not given here. *: point of attachment. AMC = Cc1cc(=O)oc2cc(N*)ccc12
# Biological target: LpApaH (3) (Legionella pneumophila, UniProt A0A2S6EWV0)
# Assay type: biochemical
row,Substance,[AMC]
1,"QPKKdec (QPKK-{AMC}; not fully specified (residue 4); printed as QPKKdec; also: decanoyl-lysine (which Lys not given here); UniProt P04637 317-320, looked up, fragment)",154.30 nM and 187.50 nM
2,"QPKKmyr (QPKK-{AMC}; not fully specified (residue 4); printed as QPKKmyr; also: myristoyl-lysine (which Lys not given here); UniProt P04637 317-320, looked up, fragment)",400.39 nM and 496.09 nM
3,"QPKKoct (QPKK-{AMC}; not fully specified (residue 4); printed as QPKKoct; also: octanoyl-lysine (which Lys not given here); UniProt P04637 317-320, looked up, fragment)",53.71 nM and 69.34 nM
